Assay results reported in publication PMC3430366.

Experiments:
[1] = target: TDPX1 Cys35Ala (Leishmania major (Friedlin strain)); assay: SDS-PAGE after reduction or oxidation
[2] = target: TDPX1 Cys83Ala (Leishmania major (Friedlin strain)); assay: SDS-PAGE after reduction or oxidation

Substance	stoichiometry N [1]	stoichiometry N [2]
TDPX1 Cys35Ala (enzyme)	2	
TDPX1 Cys83Ala (enzyme)		2
